Test results taken from patent US20250019422A1 (MAX PLANCK GESELLSCHAFT ZUR F RDERUNG DER WISSENSCHAFTEN E V, published 2025).
Read-outs that look alike come from different tables or passages of the source.

B1: Re6H06 (VHH)
VHH: QVQLVESGGGLVQPGGSLRLSCAASGVTLDYYAIGWFRQAPGKEREGVSCTSSSDGSTYYADSVKGRFTISRDNAKNTVYLQMNSLKPEDTGVYYCAVVPQTYYGGKYYSQCTANGMDYWGKGTLVTVSS
B2: Re5D06 (VHH)
VHH: QVQLVESGGGLVQPGGSLRLSCAASGITLDYYAIGWFRQAPGKEREGVSRIRSSDGSTNYADSVKGRFTMSRDNAKNTVYLQMNSLKPEDTAVYYCAYGPLTKYGSSWYWPYEYDYWGQGTQVTVSS
B3: Re32D03 (VHH)
VHH: QVQLVESGGGLVQPGGSLRLSCAISGITLDYYAVGWFLQAPGKEREGISCMRNWDGRTVYAPSVKGRFTISSDNAKKMVYLEMDNLKSEDTGVYYCAAGPLPPGISCRIPTPLGYDDWGQGTQVTVSS
B4: Re9B09 (VHH)
VHH: QVQLVESGGGLVQPGGSLRLSCAASGFTLDYYAIGWFRQAPGKEREGVSRISSSDGSTDYADSVKGRFTISRDNAKNTVYLQMNSLKPEDTAVYYCATVPGTYYSGNWYYTWHPEAVDYWGKGTQVTVSS
notes: also called ReB09

What was measured:
[1] = target: B.1.617.2/Delta
[2] = target: T1, RBD of the SARS-CoV-2 Omicron variant BA.2.75 (SARS-CoV-2 Omicron variant BA.2.75)
[3] = target: B.1.617.2/Delta; remark: listed apart in the source
[4] = target: T1, RBD of the SARS-CoV-2 Omicron variant …; remark: listed apart in the source

Binder | Kd [1] | Kd [2] | Kd [3] | Kd [4]
B1 | 0.1 nM | ≥ 1000 nM | – | –
B2 | 0.2 nM | – | – | –
B3 | – | – | ≤ 0.01 nM | 0.35 nM
B4 | – | – | 0.3 nM | 2 nM
